Several values for one entry are separate records, joined by “and”; a condition that tells them apart may be missing. Equal entries are not always repeated.

The conditions of this data set: Saccharomyces cerevisiae (strain ATCC 204508 / S288c), pH 7.5, 20 °C, Urea, HEPES 10 mM, NaCl 200 mM, reversible: Yes, whole UniProt chain shown.

B1: Eukaryotic translation initiation factor 2 subunit alpha wild type, P20459 (protein)
chain: MSTSHCRFYENKYPEIDDIVMVNVQQIAEMGAYVKLLEYDNIEGMILLSELSRRRIRSIQKLIRVGKNDVAVVLRVDKEKGYIDLSKRRVSSEDIIKCEEKYQKSKTVHSILRYCAEKFQIPLEELYKTIAWPLSRKFGHAYEAFKLSIIDETVWEGIEPPSKDVLDELKNYISKRLTPQAVKIRADVEVSCFSYEGIDAIKDALKSAEDMSTEQMQVKVKLVAAPLYVLTTQALDKQKGIEQLESAIEKITEVITKYGGVCNITMPPKAVTATEDAELQALLESKELDNRSDSEDDEDESDDE
B1: for the setting “CD”, the denaturant m value is 0.88 kcal/mol/M and 0.98 kcal/mol/M; the unfolding free energy is 2.45 kcal/mol and 2.95 kcal/mol and 4.61 kcal/mol. Besides, where the note is “Fluorescence”, the denaturant m value was 1.84 kcal/mol/M and 2.19 kcal/mol/M; the unfolding free energy is 5.17 kcal/mol and 6.66 kcal/mol and 5.45 kcal/mol.

For the origin of these results see FireProtDB (doi:10.1021/bi702211j).
